According to EP2014310A2 (Dyax Corporation, dated 2009):
Bridge positions count the residues as written; N and C are the ends. Ends that are not written are not given here.

B1: SEQ ID NO:264 (peptide)
peptide: Ac-AGPKWCEEDWYYCMITGTGGGK-NH2
modifications: cysteine pairing not given here; also: C-terminal Lys fluorescein-labeled for some assays, unlabeled for others

Biological target: T1, human KDR-Fc fusion (R&D Systems #357-KD-050) (human, UniProt P35968 20-764)
T1 construct: bought
Assay: phage binding screen on KDR-Fc; class legend in paragraph 246

T1 sequence (P35968 20-764): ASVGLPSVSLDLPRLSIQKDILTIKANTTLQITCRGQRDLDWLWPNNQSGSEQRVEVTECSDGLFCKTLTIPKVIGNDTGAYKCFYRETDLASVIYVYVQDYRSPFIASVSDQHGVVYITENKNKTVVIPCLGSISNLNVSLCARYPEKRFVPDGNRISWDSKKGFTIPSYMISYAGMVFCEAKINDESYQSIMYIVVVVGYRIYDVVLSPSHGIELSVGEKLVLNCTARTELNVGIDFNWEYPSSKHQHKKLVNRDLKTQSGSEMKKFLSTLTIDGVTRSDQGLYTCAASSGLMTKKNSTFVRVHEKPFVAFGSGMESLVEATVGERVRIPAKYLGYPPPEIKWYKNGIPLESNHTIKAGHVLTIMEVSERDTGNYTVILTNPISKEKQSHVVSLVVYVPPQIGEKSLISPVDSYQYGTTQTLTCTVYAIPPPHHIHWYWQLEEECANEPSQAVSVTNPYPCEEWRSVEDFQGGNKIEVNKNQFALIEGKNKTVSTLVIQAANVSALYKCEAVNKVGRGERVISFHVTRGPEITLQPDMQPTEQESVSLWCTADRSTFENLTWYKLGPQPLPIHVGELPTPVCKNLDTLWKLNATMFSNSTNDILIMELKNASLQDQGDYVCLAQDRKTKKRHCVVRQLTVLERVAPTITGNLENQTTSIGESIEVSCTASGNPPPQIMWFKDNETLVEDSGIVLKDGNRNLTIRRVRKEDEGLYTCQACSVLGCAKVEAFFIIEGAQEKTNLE

Question: Does RDEWGWTGVPYEGEMGYQIS [phage isolate RDEWGWTGVPYEGEMGYQIS] bind?
Answer: binds

Question: Does AQMPPWWPLAVDALFDWFE [phage isolate AQMPPWWPLAVDALFDWFE] bind?
Answer: binds

Question: Does QIEYVNDKWYWTGGYWNVPF [phage isolate QIEYVNDKWYWTGGYWNVPF] bind?
Answer: binds

Question: Does EWYWTEHVGMKHGFFV [phage isolate EWYWTEHVGMKHGFFV] bind?
Answer: binds

Question: Does EPEGYAYWEVITLYHEEDGD [phage isolate EPEGYAYWEVITLYHEEDGD] bind?
Answer: binds

Question: Does WLYDYWDRQQKSEEFKFWSQ [phage isolate WLYDYWDRQQKSEEFKFWSQ] bind?
Answer: binds

Question: Does KKEDAQQWYWTDYVPSYLYR [phage isolate KKEDAQQWYWTDYVPSYLYR] bind?
Answer: binds

Question: Does MPPGFSYWEQVVLHDDAQVL [phage isolate MPPGFSYWEQVVLHDDAQVL] bind?
Answer: binds

Question: Does PSNSWAAVWEDDMQRLMRQH [phage isolate PSNSWAAVWEDDMQRLMRQH] bind?
Answer: binds

Question: Does ISPWREMSGWGMPWITAVPH [phage isolate ISPWREMSGWGMPWITAVPH] bind?
Answer: binds

Question: Does PEDSEAWYWLNYRPTMFHQL [phage isolate PEDSEAWYWLNYRPTMFHQL] bind?
Answer: binds

Question: Does MPPGFSYWEQAALHDDAQDL [phage isolate MPPGFSYWEQAALHDDAQDL] bind?
Answer: binds

Question: Does WESDYWDQMRQQLKTAYMKV [phage isolate WESDYWDQMRQQLKTAYMKV] bind?
Answer: binds

Question: Does WYHDGLHNERKPPSHWIDNV [phage isolate WYHDGLHNERKPPSHWIDNV] bind?
Answer: binds

Question: Does LEEVFEDFQDFWYTEHIIVDR [phage isolate LEEVFEDFQDFWYTEHIIVDR] bind?
Answer: binds

Question: Does DWYWREWMPMHAQFLADDW [phage isolate DWYWREWMPMHAQFLADDW] bind?
Answer: binds

Question: Does TKWGPNPEHWQYWYSHYASS [phage isolate TKWGPNPEHWQYWYSHYASS] bind?
Answer: binds

Question: Does PRLGDDFEEAPPLEWWWAHF [phage isolate PRLGDDFEEAPPLEWWWAHF] bind?
Answer: binds

Question: Does DWYWQRERDKLREHYDDAFW [phage isolate DWYWQRERDKLREHYDDAFW] bind?
Answer: binds

Question: Does GDYVYWEIIELTGATDHTPP [phage isolate GDYVYWEIIELTGATDHTPP] bind?
Answer: binds

Question: Does WVTKQQFIDTYGRKEWTILF [phage isolate WVTKQQFIDTYGRKEWTILF] bind?
Answer: binds

Question: Does EWDAQYWHDLRQQYMLDYIQ [phage isolate EWDAQYWHDLRQQYMLDYIQ] bind?
Answer: binds

Question: Does FPSQMWQQKVSHHFFQHKGY [phage isolate FPSQMWQQKVSHHFFQHKGY] bind?
Answer: binds

Question: Does ARMGDDWEEAPPHEWGWADG [phage isolate ARMGDDWEEAPPHEWGWADG] bind?
Answer: binds

Question: Does RGDYQEQYWHQQLVEQLKLL [phage isolate RGDYQEQYWHQQLVEQLKLL] bind?
Answer: binds

Question: Does EEQQALYPGCEPAEHWVYAG [phage isolate EEQQALYPGCEPAEHWVYAG] bind?
Answer: binds

Question: Does AFEIEYWDSVRNKIWQHFPD [phage isolate AFEIEYWDSVRNKIWQHFPD] bind?
Answer: binds

Question: Does RSWYLGPPYYEEWDPIPN [phage isolate RSWYLGPPYYEEWDPIPN] bind?
Answer: binds

Question: Does QVQYQFFLGTPRYEQWDLDK [phage isolate QVQYQFFLGTPRYEQWDLDK] bind?
Answer: binds

Question: Does QVQYQFILGTPRYEQWDPDK [phage isolate QVQYQFILGTPRYEQWDPDK] bind?
Answer: binds

Question: Does PVTDWTPHHPKAPDVWLFYT [phage isolate PVTDWTPHHPKAPDVWLFYT] bind?
Answer: binds

Question: Does STNGDSFVYWEEVELVDHPY [phage isolate STNGDSFVYWEEVELVDHPY] bind?
Answer: binds

Question: Does GSDHVRVDNYWWNGMAWEIF [phage isolate GSDHVRVDNYWWNGMAWEIF] bind?
Answer: binds

Question: Does DALEAPKRDWYYDWFLNHSP [phage isolate DALEAPKRDWYYDWFLNHSP] bind?
Answer: binds

Question: Does SYEQWLPQYWAQYKSNYFL [phage isolate SYEQWLPQYWAQYKSNYFL] bind?
Answer: binds

Question: Does WYYDWFHNQRKPPSDWIDNL [phage isolate WYYDWFHNQRKPPSDWIDNL] bind?
Answer: binds

Question: Does FDVVNWGDGIWYAYPS [phage isolate FDVVNWGDGIWYAYPS] bind?
Answer: binds

Question: Does AFPRFGGDDYWIQQYLRYTD [phage isolate AFPRFGGDDYWIQQYLRYTD] bind?
Answer: binds

Question: Does AFPRFGGDDYWIQQYLRYTF [phage isolate AFPRFGGDDYWIQQYLRYTF] bind?
Answer: binds

Question: Does VSKGSIDVGEGISYWEIIEL [phage isolate VSKGSIDVGEGISYWEIIEL] bind?
Answer: binds

Question: Does DWYYDEILSMADQLRHAFLS [phage isolate DWYYDEILSMADQLRHAFLS] bind?
Answer: binds

Biological target: T1, human KDR-Fc fusion (R&D Systems …)
Assay: fluorescence anisotropy, fluorescein-labeled peptide

Question: Which Kd does the source give for Ac-GDYPWCHELSDSVTRFCVPWDPGGGK-NH2 (disulfide 6-17 (inferred); not fully specified) [SEQ ID NO:293] here?
Answer: 980 nM

Biological target: T1, human KDR-Fc fusion (R&D Systems …)
Assay: phage binding screen on KDR-Fc; class legend in paragraph 246
Remark: another data set of the same source

Question: Does DSWCELEHQSGIWRCDFW [phage isolate DSWCELEHQSGIWRCDFW] bind?
Answer: binds

Question: Does DWACDEYWSAYSVLCKHP [phage isolate DWACDEYWSAYSVLCKHP] bind?
Answer: binds

Question: Does YYQCQRYWDGKTWWCEYN [phage isolate YYQCQRYWDGKTWWCEYN] bind?
Answer: binds

Question: Does NGSCWYDFGWETEICFHN [phage isolate NGSCWYDFGWETEICFHN] bind?
Answer: binds

Question: Does PPFCIYQEPSGQWWCYDH [phage isolate PPFCIYQEPSGQWWCYDH] bind?
Answer: binds

Question: Does WDDCIWHMWLKKKDCNSG [phage isolate WDDCIWHMWLKKKDCNSG] bind?
Answer: binds

Question: Does SDLCYNQSGWWELCYFD [phage isolate SDLCYNQSGWWELCYFD] bind?
Answer: binds

Question: Does LGYCMYDYENRGWTCYPP (not fully specified; cysteine pairing not given here) [phage isolate LGYCMYDYENRGWTCYPP] bind?
Answer: binds

Question: Does DRWCMLDQEKGWWLCGPP [phage isolate DRWCMLDQEKGWWLCGPP] bind?
Answer: binds

Question: Does PGWCDFSPQLGQWMCDWF [phage isolate PGWCDFSPQLGQWMCDWF] bind?
Answer: binds

Question: Does YSDCLFQLWKGSVCPPS [phage isolate YSDCLFQLWKGSVCPPS] bind?
Answer: binds

Question: Does YSHCIETSMENIWFCDFD [phage isolate YSHCIETSMENIWFCDFD] bind?
Answer: binds

Question: Does PFWCKFQQSKAMFPCSWF [phage isolate PFWCKFQQSKAMFPCSWF] bind?
Answer: binds

Question: Does LDNCIWNVWKGVQDCEYS [phage isolate LDNCIWNVWKGVQDCEYS] bind?
Answer: binds

Question: Does LSLCYNDMHGWWEHCQWY [phage isolate LSLCYNDMHGWWEHCQWY] bind?
Answer: binds

Question: Does AGWCEYVAPQGAWRCFHN [phage isolate AGWCEYVAPQGAWRCFHN] bind?
Answer: binds

Question: Does PGHCEYIWIDEQPWCVRL [phage isolate PGHCEYIWIDEQPWCVRL] bind?
Answer: binds

Question: Does NSECGCPNMLHKEFCARH [phage isolate NSECGCPNMLHKEFCARH] bind?
Answer: binds

Biological target: T1, human KDR-Fc fusion (R&D Systems …)
Assay: Biacore, KDR-Fc on CM5 chip, unlabeled peptide

Question: Ac-AQDWYYDEILSMADQLRHAFLSGGGK-NH2 (not fully specified) [SEQ ID NO:310] was tested. Which Kd did it give?
Answer: 50 nM

Question: With B1 as the binder, how does the Kd read?
Answer: 27 nM

Question: Which Kd does the source give for Ac-GDYPWCHELSDSVTRFCVPWDPGGGK-NH2 (disulfide 6-17 (inferred); not fully specified) [SEQ ID NO:293] here?
Answer: 180 nM
